Assay results published in patent publication US4010251A, “Scanning agent composition and use in imaging liver and for biliary function” (priority 1974, dated 1977).

Tests used:
liver = details: human, in vivo; cited from earlier work
rat and rabbit liver = experiment: In vivo animal hepatic imaging after intravenous injection of labelled compounds
Procedure: Adult male Wistur rats weighing about 400g and male New Zealand rabbits weighing about 2.5kg. were used in the in vivo animal imaging studies. After intravenous injection of the labelled compounds (100-400uCi) as a bolus into experimental animals, hepatic imaging was performed on a PhoGamma III scintillation camera (Nuclear Chicago Corp., Des Plaines, Ill.) using a 140keV parallel collimator. Images were recorded on Polaroid type 55 film.

[1] = in vivo; cited from earlier work

## O=C(O)c1c(Cl)c(Cl)c(Cl)c(Cl)c1-c1c2cc(I)c(=O)c(I)c-2oc2c(I)c(O)c(I)cc12 [^131 I-rose bengal]
liver
  20:5 minutes ratio of blood ^131 I-rose bengal concentrations: 0.39-0.51
  time by which biliary excretion has begun: ≤ 20 min
  time for maximal concentration in the liver: ~30 min

B1: Radiolabelled DTBG: Radiolabelled desialylated thyroxine-binding globulin; radiolabel not specified at that place (protein, UniProt P05543 21-415, looked up)
Thyroxine-binding globulin: ASPEGKVTACHSSQPNATLYKMSSINADFAFNLYRRFTVETPDKNIFFSPVSISAALVMLSFGACCSTQTEIVETLGFNLTDTPMVEIQHGFQHLICSLNFPKKELELQIGNALFIGKHLKPLAKFLNDVKTLYETEVFSTDFSNISAAKQEINSHVEMQTKGKVVGLIQDLKPNTIMVLVNYIHFKAQWANPFDPSKTEDSSSFLIDKTTTVQVPMMHQMEQYYHLVDMELNCTVLQMDYSKNALALFVLPKEGQMESVEAAMSSKTLKKWNRLLQKGWVDLFVPKFSISATYDLGATLLKMGIQHAYSENADFSGLTEDNGLKLSNAAHKAVLHIGEKGTEAAAVPEVELSDQPENTFLHPIIQIDRSFMLLILERSTRSILFLGKVVNPTEA
modifications: desialylated; radiolabelled
notes: radiolabel not specified at that place
Rat and rabbit liver; scintillation camera
  liver imaging after intravenous injection: effective as a liver imaging agent

B2: ^131 I-DTBG: ^131 I labelled desialylated thyroxine-binding globulin (protein, UniProt P05543 21-415, looked up)
Thyroxine-binding globulin: B1 Thyroxine-binding globulin
modifications: 131I label; desialylated
Rat and rabbit liver; in vivo
  clearance of the iodine label by the kidneys noted, time post-injection: 20 or 30 minutes
  uptake and concentration in the liver: rapidly taken up by the hepatocytes

B3: DTBG: desialylated thyroxine-binding globulin from pooled human serum (protein, UniProt P05543 21-415, looked up)
Thyroxine-binding globulin: B1 Thyroxine-binding globulin
modifications: desialylated
[1]
  half-life in the circulation: 4 to 5 min
